The text below walks through data of IntAct's records for PubMed 23454120.

First the molecules themselves.
B1: Rho-related GTP-binding protein RhoD (Mus musculus), P97348 (parent)
chain: MNASQVAGEEAPQSGHSVKVVLVGDGGCGKTSLMMVFAKGAFPESYSPTVFERYNATLQMKGKPVHLQIWDTAGQDDYDRLRPLFYPDANVLLLCFDVTNPNSFDNVSNRWYPEVTHFCKGVPIIVVGCKIDLRKDKVLVNNLRKKRLEPVTYHRGHDMARSVGAVAYLECSARLHDNVEAVFQEAAEVALSSRRHNFWRRITQNCCLAT

The variants in the assay derive from B1. As to conditions: with dapk3_human DAPK3, O43293.
Sequence of dapk3_human DAPK3, O43293 (O43293 whole entry, looked up): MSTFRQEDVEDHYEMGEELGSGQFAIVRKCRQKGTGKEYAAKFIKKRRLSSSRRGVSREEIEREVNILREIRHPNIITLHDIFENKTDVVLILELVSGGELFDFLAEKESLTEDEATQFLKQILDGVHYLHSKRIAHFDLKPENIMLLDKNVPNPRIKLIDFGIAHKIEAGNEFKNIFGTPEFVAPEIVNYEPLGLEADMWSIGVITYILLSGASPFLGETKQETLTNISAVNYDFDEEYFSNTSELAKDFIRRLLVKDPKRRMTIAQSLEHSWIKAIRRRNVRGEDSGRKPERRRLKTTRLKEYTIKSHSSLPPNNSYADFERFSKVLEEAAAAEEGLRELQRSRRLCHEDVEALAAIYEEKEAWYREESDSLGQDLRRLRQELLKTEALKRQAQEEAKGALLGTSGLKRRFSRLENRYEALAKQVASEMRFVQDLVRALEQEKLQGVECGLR
Regarding T31N, the “effect of a mutation on the interaction” value is “disrupting interaction”.
